Test results reported in PMC2190585 (The Journal of Cell Biology, 2000).

Molecular target: T1, COOH-terminal domain of Numb (aa 298–603), purified (human, UniProt P49757-2 298-603)
T1 sequence (looked up): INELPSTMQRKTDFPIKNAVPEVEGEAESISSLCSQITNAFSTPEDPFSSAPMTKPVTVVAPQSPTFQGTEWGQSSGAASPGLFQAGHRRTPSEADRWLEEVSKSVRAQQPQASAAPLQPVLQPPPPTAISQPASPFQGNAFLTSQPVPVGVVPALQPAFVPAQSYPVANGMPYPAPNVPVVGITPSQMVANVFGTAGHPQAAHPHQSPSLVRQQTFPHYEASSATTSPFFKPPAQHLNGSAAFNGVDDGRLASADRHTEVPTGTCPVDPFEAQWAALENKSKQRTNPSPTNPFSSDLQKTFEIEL
Assay: pull-down

B1: GST–α ear (GST fusion protein containing aa 715–977 of the mouse α adaptin) (domain or fragment, UniProt P17426 715-977, looked up)
chain: PMALLADPAPAADPGPEDIGPPIPEADELLNKFVCKNSGVLFENQLLQIGVKSEFRQNLGRMYLFYGNKTSVQFQNFLPTVVHPGDLQTQLAVQTKRVAAQVDGGAQVQQVLNIECLRDFLTPPLLSVRFRYGGTAQSLTLKLPVTINKFFQPTEMAAQDFFQRWKQLSLPLQEAQKIFKANHPMDAEVTKAKLLGFGSALLDNVDPNPENFVGAGIIQTKALQVGCLLRLEPNAQAQMYRLTLRTSKEPVSRHLCELLAQQF
- binding result: binds
